# Laboratory results as given in patent publication US20170002055A1, “Novel peptides and combination of peptides for use in immunotherapy against ovarian cancer and other cancers” (immatics biotechnologies GmbH, priority 2015, published 2017).
# Molecular target: HLA-A*02:01 (Homo sapiens, UniProt P04439, D140Y/D185E/D98H/E176V/E277Q/G131W/G231S/I119V/I121R/I166T/I218V/L300P/L318F/N151K/N90K/P208A/P217A/Q86G/Q94H/R138H/R169H/T345S)
# Assay: MHC binding assay (UV-ligand exchange, β2m ELISA, peptide exchange yield)
# Details: MHC class I binding score; binding to HLA-A*02:01 ranged by peptide exchange yield (UV-ligand exchange, β2m ELISA)
# Procedure, shortened: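 Peptide–HLA-A*02:01 complexes were formed by UV-mediated exchange of a UV-cleavable ligand for the test peptide. Exchange yield was measured by capturing complexes on streptavidin, detecting with HRP anti-β2m antibody (1 h, 37°C) and reading TMB absorbance at 450 nm.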
row,Peptide exchange,Substance
1,“+++” (≧50 = +++),346 (LLDSKVPSV; listed as Homo sapiens) [compound 346]
2,“++++” (≧75% = ++++),347 (SLFKHDPAAWEA; listed as Homo sapiens) [compound 347]
3,“++++” (≧75% = ++++),348 (ILLDVKTRL; listed as Homo sapiens) [compound 348]
4,“+++” (≧50 = +++),350 (ALLDVTHSELTV; listed as Homo sapiens) [compound 350]
5,“+++” (≧50 = +++),351 (SLIPNLRNV; listed as Homo sapiens) [compound 351]
6,“++” (≧20% = ++),354 (LILEGVDTV; listed as Homo sapiens) [compound 354]
7,“++” (≧20% = ++),355 (SIQQSIERLLV; listed as Homo sapiens) [compound 355]
8,“+++” (≧50 = +++),357 (SMHDLVLQV; listed as Homo sapiens) [compound 357]
9,“+++” (≧50 = +++),362 (TLYGLSVLL; listed as Homo sapiens) [compound 362]
10,“++” (≧20% = ++),363 (KVLDVSDLESV; listed as Homo sapiens) [compound 363]
11,“+++” (≧50 = +++),365 (YVIDQGETDVYV; listed as Homo sapiens) [compound 365]
12,“+++” (≧50 = +++),367 (SLQNHNHQL; listed as Homo sapiens) [compound 367]
13,“+++” (≧50 = +++),369 (GLFPEHLIDV; listed as Homo sapiens) [compound 369]
14,“+++” (≧50 = +++),370 (SLLQDLVSV; listed as Homo sapiens) [compound 370]
15,“++++” (≧75% = ++++),371 (FLQAHLHTA; listed as Homo sapiens) [compound 371]
16,“++” (≧20% = ++),372 (TMLLNIPLV; listed as Homo sapiens) [compound 372]
17,“++” (≧20% = ++),373 (SLLEDKGLAEV; listed as Homo sapiens) [compound 373]
18,“+++” (≧50 = +++),378 (ALGYFVPYV; listed as Homo sapiens) [compound 378]
19,“++” (≧20% = ++),380 (TLIEDEIATI; listed as Homo sapiens) [compound 380]
20,“+++” (≧50 = +++),383 (ALLELENSVTL; listed as Homo sapiens) [compound 383]
21,“++” (≧20% = ++),385 (SLLEQGLVEA; listed as Homo sapiens) [compound 385]
22,“+++” (≧50 = +++),386 (ILFRYPLTI; listed as Homo sapiens) [compound 386]
23,“++++” (≧75% = ++++),387 (ALFQATAEV; listed as Homo sapiens) [compound 387]

row,Peptide exchange,Substance
1,“+++” (≧50 = +++),390 (ALFMKQIYL; listed as Homo sapiens) [compound 390]
2,“+++” (≧50 = +++),391 (YVYPQRLNFV; listed as Homo sapiens) [compound 391]
3,“+++” (≧50 = +++),396 (ALLPDLPAL; listed as Homo sapiens) [compound 396]
4,“+++” (≧50 = +++),397 (YLFGERLLEC; listed as Homo sapiens) [compound 397]
5,“++” (≧20% = ++),398 (KLLEEDGTIITL; listed as Homo sapiens) [compound 398]
6,“+++” (≧50 = +++),399 (YLFEPLYHV; listed as Homo sapiens) [compound 399]
7,“++” (≧20% = ++),403 (KLYDRILRV; listed as Homo sapiens) [compound 403]
8,“+++” (≧50 = +++),407 (YLMDLINFL; listed as Homo sapiens) [compound 407]
9,“++” (≧20% = ++),408 (VLDDSIYLV; listed as Homo sapiens) [compound 408]
10,“+++” (≧50 = +++),426 (RLADKSVLV; listed as Homo sapiens) [compound 426]
11,“+++” (≧50 = +++),427 (ALLPLSPYL; listed as Homo sapiens) [compound 427]
12,“++” (≧20% = ++),428 (KLGHTDILVGV; listed as Homo sapiens) [compound 428]
13,“++” (≧20% = ++),429 (GLVNDLARV; listed as Homo sapiens) [compound 429]
14,“+++” (≧50 = +++),430 (HLYSSIEHLTT; listed as Homo sapiens) [compound 430]
15,“++” (≧20% = ++),431 (SLVNVVPKL; listed as Homo sapiens) [compound 431]
16,“++” (≧20% = ++),432 (TLIEESAKV; listed as Homo sapiens) [compound 432]
17,“+++” (≧50 = +++),433 (AMLNEPWAV; listed as Homo sapiens) [compound 433]
18,“++” (≧20% = ++),434 (KVSNSGITRV; listed as Homo sapiens) [compound 434]
19,“+++” (≧50 = +++),437 (SMAPGLVIQAV; listed as Homo sapiens) [compound 437]
20,“+++” (≧50 = +++),439 (YLLQEIYGI; listed as Homo sapiens) [compound 439]
21,“+++” (≧50 = +++),444 (GLLRDEALAEV; listed as Homo sapiens) [compound 444]
22,“++” (≧20% = ++),447 (QLVPALAKV; listed as Homo sapiens) [compound 447]

# More lines, now with the values behind:
row,Substance,Peptide exchange
1,349 (SLTEYLQNV; listed as Homo sapiens) [compound 349],“++++” (≧75% = ++++)
2,352 (SLLELLHIYV; listed as Homo sapiens) [compound 352],“+++” (≧50 = +++)
3,353 (YLFEMDSSL; listed as Homo sapiens) [compound 353],“++” (≧20% = ++)
4,356 (KLLGKLPEL; listed as Homo sapiens) [compound 356],“+++” (≧50 = +++)
5,358 (ALDEYTSEL; listed as Homo sapiens) [compound 358],“++++” (≧75% = ++++)
6,359 (YLLPESVDL; listed as Homo sapiens) [compound 359],“+++” (≧50 = +++)
7,361 (ALYELEGTTV; listed as Homo sapiens) [compound 361],“+++” (≧50 = +++)
8,364 (LLQNEQFEL; listed as Homo sapiens) [compound 364],“+++” (≧50 = +++)
9,366 (RLLDMGETDLML; listed as Homo sapiens) [compound 366],“+++” (≧50 = +++)
10,374 (FLLQQHLISA; listed as Homo sapiens) [compound 374],“++” (≧20% = ++)
11,375 (SLTETIEGV; listed as Homo sapiens) [compound 375],“++” (≧20% = ++)
12,376 (AMFESSQNVLL; listed as Homo sapiens) [compound 376],“++” (≧20% = ++)
13,377 (FLLDSSASV; listed as Homo sapiens) [compound 377],“++” (≧20% = ++)
14,379 (IMEGTLTRV; listed as Homo sapiens) [compound 379],“++” (≧20% = ++)
15,381 (FIDEAYVEV; listed as Homo sapiens) [compound 381],“++” (≧20% = ++)
16,382 (ALQNYIKEA; listed as Homo sapiens) [compound 382],“++” (≧20% = ++)
17,388 (SLTIDGIRYV; listed as Homo sapiens) [compound 388],“+++” (≧50 = +++)

row,Substance,Peptide exchange
1,389 (LLADVTHLL; listed as Homo sapiens) [compound 389],“++” (≧20% = ++)
2,392 (ALLHPQGFEV; listed as Homo sapiens) [compound 392],“++” (≧20% = ++)
3,393 (GLLDTQTSQVLTA; listed as Homo sapiens) [compound 393],“++” (≧20% = ++)
4,394 (LLAVIGGLVYL; listed as Homo sapiens) [compound 394],“+++” (≧50 = +++)
5,400 (SLLTEQDLWTV; listed as Homo sapiens) [compound 400],“++” (≧20% = ++)
6,401 (ILLDDTGLAYI; listed as Homo sapiens) [compound 401],“+++” (≧50 = +++)
7,402 (VLFSGALLGL; listed as Homo sapiens) [compound 402],“++” (≧20% = ++)
8,405 (ALYDVFLEV; listed as Homo sapiens) [compound 405],“++” (≧20% = ++)
9,409 (LLDAMNYHL; listed as Homo sapiens) [compound 409],“++” (≧20% = ++)
10,412 (YLDDLNEGVYI; listed as Homo sapiens) [compound 412],“++” (≧20% = ++)
11,436 (HLAEVSAEV; listed as Homo sapiens) [compound 436],“+++” (≧50 = +++)
12,438 (KLLPLAGLYL; listed as Homo sapiens) [compound 438],“++++” (≧75% = ++++)
13,440 (ALADGVTMQV; listed as Homo sapiens) [compound 440],“++” (≧20% = ++)
14,441 (ALLENPKMEL; listed as Homo sapiens) [compound 441],“+++” (≧50 = +++)
15,442 (GLLGGGGVLGV; listed as Homo sapiens) [compound 442],“+++” (≧50 = +++)
16,448 (NLLETKLQL; listed as Homo sapiens) [compound 448],“+++” (≧50 = +++)
